Laboratory results from the supplement of paper PMC10567573.

B1: RAB11A (parent)
chain: AVPTDEARAFAEKNGLSFIETSAL

Variants of: B1
Experiment: protein stability index of a GFP-peptide fusion (GPS, HEK-293T) (PSI 1-6); higher = more stable
Settings: c terminus: a fixed tail appended
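Note: lentivirally expressed fusions sorted by FACS into six bins by GFP to DsRed ratio, PSI derived from sequencing read proportions per bin multiplied by bin number.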

Variant	protein stability index
AVPTDEARAFAEKNGLSFIEISAL [T21I]	1.8
AVPTDEARAFAEKNGLSFIEASAL [T21A]	2.49
AVPTDEARAFAEKNGLSFIEQSAL [T21Q]	3.75
AVPTDEARAFAEKNGLSFIENSAL [T21N]	2.47
AVPTDEARAFAEKNGLSFIEKSAL [T21K]	3.37
AVPTDEARAFAEKNGLSFIECSAL [T21C]	2.87
AVPTDEARAFAEKNGLSFIEFSAL [T21F]	2.37
AVPTDEARAFAEKNGLSFIEPSAL [T21P]	2.15
AVPTDEARAFAEKNGLSFIERSAL [T21R]	2.5
AVPTDEARAFAEKNGLSFIEHSAL [T21H]	2.67
AVPTDEARAFAEKNGLSFIEGSAL [T21G]	1.78
AVPTDEARAFAEKNGLSFIEDSAL [T21D]	4.45
AVPTDEARAFAEKNGLSFIEESAL [T21E]	4.34
AVPTDEARAFAEKNGLSFIELSAL [T21L]	2.46
AVPTDEARAFAEKNGLSFIEMSAL [T21M]	2.64
AVPTDEARAFWEKNGLSFIETSAL [A11W]	1.9
AVPTDEARAFYEKNGLSFIETSAL [A11Y]	2.2
AVPTDEARAFVEKNGLSFIETSAL [A11V]	2.65
AVPTDEARAFAEKNGPSFIETSAL [L16P]	4.08
AVPTDEARAFAEKNGHSFIETSAL [L16H]	4.3
AVPTDEARAFAEKNGSSFIETSAL [L16S]	4.35
AVPTDEARAFAEKNGMSFIETSAL [L16M]	3.73
AVPTDEARAFAEKNGRSFIETSAL [L16R]	3.8
AVPTDEARAFAEKNGESFIETSAL [L16E]	4.73

Variant	protein stability index
AVPTDEARAFAEKNGGSFIETSAL [L16G]	4.35
AVPTDEARAFAEKNGNSFIETSAL [L16N]	4.05
AVPTDEARAFAEKNGVSFIETSAL [L16V]	3.73
AVPTDEARAFAEKNGCSFIETSAL [L16C]	3.66
AVPTDEARAFAEKNGKSFIETSAL [L16K]	4.27
AVPTDEARAFAEKNGASFIETSAL [L16A]	4.51
AVPTDEARAFAEKNGFSFIETSAL [L16F]	1.91
AVPTDEARAFAEKNGDSFIETSAL [L16D]	4.87
AVPTDEARAFAEKNGYSFIETSAL [L16Y]	3.14
AVPTDEARAFAEKNGQSFIETSAL [L16Q]	4.2
AVPTDEARAFAEKNGISFIETSAL [L16I]	3.85
AVPTDEARAFAEKNGWSFIETSAL [L16W]	2.6
AVPTDEARAFAEKNGTSFIETSAL [L16T]	4.14
AVPTDEARAFAEKLGLSFIETSAL [N14L]	2.03
AVPTDEARAFAEKRGLSFIETSAL [N14R]	2.52
AVPTDEARAFAEKCGLSFIETSAL [N14C]	1.71
AVPTDEARAFAEKPGLSFIETSAL [N14P]	2.44
AVPTDEARAFAEKSGLSFIETSAL [N14S]	2.95
AVPTDEARAFAEKEGLSFIETSAL [N14E]	3.54
AVPTDEARAFAEKMGLSFIETSAL [N14M]	1.92
AVPTDEARAFAEKHGLSFIETSAL [N14H]	2.36
AVPTDEARAFAEKQGLSFIETSAL [N14Q]	2.85
AVPTDEARAFAEKGGLSFIETSAL [N14G]	2.15
AVPTDEARAFAEKYGLSFIETSAL [N14Y]	2.17

Variant	protein stability index
AVPTDEARAFAEKWGLSFIETSAL [N14W]	1.74
AVPTDEARAFAEKFGLSFIETSAL [N14F]	2.25
AVPTDEARAFAEKTGLSFIETSAL [N14T]	2.39
AVPTDEARAFAEKDGLSFIETSAL [N14D]	3.62
AVPTDEARAFAEKIGLSFIETSAL [N14I]	2.13
AVPTDEARAFAEKKGLSFIETSAL [N14K]	2.46
AVPTDEARAFAEKVGLSFIETSAL [N14V]	1.85
AVPTDEARAFAEKAGLSFIETSAL [N14A]	1.96
AVPTDEARAFALKNGLSFIETSAL [E12L]	1.75
AVPTDEARAFATKNGLSFIETSAL [E12T]	1.46
AVPTDEARAFANKNGLSFIETSAL [E12N]	2.41
AVPTDEARAFAHKNGLSFIETSAL [E12H]	1.96
AVPTDEARAFAFKNGLSFIETSAL [E12F]	1.69
AVPTDEARAFAAKNGLSFIETSAL [E12A]	2.07
AVPTDEARAFAQKNGLSFIETSAL [E12Q]	1.77
AVPTDEARAFADKNGLSFIETSAL [E12D]	2.54
AVPTDEARAFAGKNGLSFIETSAL [E12G]	1.9
AVPTDEARAFAWKNGLSFIETSAL [E12W]	2.08
AVPTDEARAFAYKNGLSFIETSAL [E12Y]	1.74
AVPTDEARAFAVKNGLSFIETSAL [E12V]	2.3
AVPTDEARAFAPKNGLSFIETSAL [E12P]	1.88
AVPTDEARAFACKNGLSFIETSAL [E12C]	2.85
AVPTDEARAFAKKNGLSFIETSAL [E12K]	1.81
AVPTDEARAFAMKNGLSFIETSAL [E12M]	1.54

Variant	protein stability index
AVPTDEARAFAIKNGLSFIETSAL [E12I]	1.39
AVPTDEARAFARKNGLSFIETSAL [E12R]	2.55
AVPTDEARAFASKNGLSFIETSAL [E12S]	2.01
AVPTDEARAFAEKNGLSAIETSAL [F18A]	4.62
AVPTDEARAFAEKNGLSPIETSAL [F18P]	4.68
AVPTDEARAFAEKNGLSDIETSAL [F18D]	5.03
AVPTDEARAFAEKNGLSRIETSAL [F18R]	4.22
AVPTDEARAFAEKNGLSGIETSAL [F18G]	4.35
AVPTDEARAFAEKNGLSKIETSAL [F18K]	4.2
AVPTDEARAFAEKNGLSNIETSAL [F18N]	4.47
AVPTDEARAFAEKNGLSIIETSAL [F18I]	3.6
AVPTDEARAFAEKNGLSYIETSAL [F18Y]	2.62
AVPTDEARAFAEKNGLSHIETSAL [F18H]	4.72
AVPTDEARAFAEKNGLSWIETSAL [F18W]	3.46
AVPTDEARAFAEKNGLSLIETSAL [F18L]	4.14
AVPTDEARAFAEKNGLSMIETSAL [F18M]	3.93
AVPTDEARAFAEKNGLSSIETSAL [F18S]	4.62
AVPTDEARAFAEKNGLSTIETSAL [F18T]	4.32
AVPTDEARAFAEKNGLSEIETSAL [F18E]	4.57
AVPTDEARAFAEKNGLSCIETSAL [F18C]	4.29
AVPTDEARAFAEKNGLSQIETSAL [F18Q]	4.33
AVPTDEARAFAEKNGLSVIETSAL [F18V]	4.35
AVPTDEARAFAEKNGLSFFETSAL [I19F]	3.4
AVPTDEARAFAEKNGLSFCETSAL [I19C]	3.45

Variant	protein stability index
AVPTDEARAFAEKNGLSFAETSAL [I19A]	4.39
AVPTDEARAFAEKNGLSFMETSAL [I19M]	3.91
AVPTDEARAFAEKNGLSFGETSAL [I19G]	4.5
AVPTDEARAFAEKNGLSFLETSAL [I19L]	3.71
AVPTDEARAFAEKNGLSFRETSAL [I19R]	3.85
AVPTDEARAFAEKNGLSFNETSAL [I19N]	4.43
AVPTDEARAFAEKNGLSFVETSAL [I19V]	3
AVPTDEARAFAEKNGLSFSETSAL [I19S]	4.41
AVPTDEARAFAEKNGLSFYETSAL [I19Y]	3.81
AVPTDEARAFAEKNGLSFPETSAL [I19P]	4.5
AVPTDEARAFAEKNGLSFTETSAL [I19T]	4.17
AVPTDEARAFAEKNGLSFHETSAL [I19H]	2.46
AVPTDEARAFAEKNGLSFDETSAL [I19D]	4.56
AVPTDEARAFAEKNGLSFKETSAL [I19K]	4.12
AVPTDEARAFAEKNGLSFQETSAL [I19Q]	3.6
AVPTDEARAFAEKNGLSFEETSAL [I19E]	4.24
AVPTDEARAFAEKNGLSFWETSAL [I19W]	3.92
AVPTDEARAFAEKNGLSFITTSAL [E20T]	2.41
AVPTDEARAFAEKNGLSFIPTSAL [E20P]	3.12
AVPTDEARAFAEKNGLSFIYTSAL [E20Y]	2.35
AVPTDEARAFAEKNGLSFIWTSAL [E20W]	1.44
AVPTDEARAFAEKNGLSFISTSAL [E20S]	3.01
AVPTDEARAFAEKNGLSFIQTSAL [E20Q]	2.34
AVPTDEARAFAEKNGLSFIRTSAL [E20R]	2.5

Variant	protein stability index
AVPTDEARAFAEKNGLSFINTSAL [E20N]	2.24
AVPTDEARAFAEKNGLSFIHTSAL [E20H]	1.87
AVPTDEARAFAEKNGLSFIMTSAL [E20M]	1.81
AVPTDEARAFAEKNGLSFIFTSAL [E20F]	1.79
AVPTDEARAFAEKNGLSFIITSAL [E20I]	1.8
AVPTDEARAFAEKNGLSFIGTSAL [E20G]	2.02
AVPTDEARAFAEKNGLSFIDTSAL [E20D]	2.08
AVPTDEARAFAEKNGLSFILTSAL [E20L]	1.74
AVPTDEARAFAEKNGLSFIVTSAL [E20V]	1.86
AVPTDEARAFAEKNGLSFIKTSAL [E20K]	2.8
AVPTDEARAFAEKNGLSFIATSAL [E20A]	2.27
AVPTDEARAFAEKNGLSFICTSAL [E20C]	2.01
AVPTDEARAFAEWNGLSFIETSAL [K13W]	4.07
AVPTDEARAFAESNGLSFIETSAL [K13S]	2.9
AVPTDEARAFAEINGLSFIETSAL [K13I]	2.09
AVPTDEARAFAEYNGLSFIETSAL [K13Y]	2.49
AVPTDEARAFAEENGLSFIETSAL [K13E]	2.81
AVPTDEARAFAEDNGLSFIETSAL [K13D]	3.88
AVPTDEARAFAEQNGLSFIETSAL [K13Q]	2.67
AVPTDEARAFAENNGLSFIETSAL [K13N]	2.43
AVPTDEARAFAEHNGLSFIETSAL [K13H]	1.77
AVPTDEARAFAEMNGLSFIETSAL [K13M]	2.12
AVPTDEARAFAEFNGLSFIETSAL [K13F]	2.24
AVPTDEARAFAEPNGLSFIETSAL [K13P]	2.28

Variant	protein stability index
AVPTDEARAFAECNGLSFIETSAL [K13C]	2.38
AVPTDEARAFAEANGLSFIETSAL [K13A]	2.57
AVPTDEARAFAEVNGLSFIETSAL [K13V]	2.23
AVPTDEARAFAEGNGLSFIETSAL [K13G]	3.15
AVPTDEARAFAETNGLSFIETSAL [K13T]	2.18
AVPTDEARAFAELNGLSFIETSAL [K13L]	2.17
AVPTDEARAFAERNGLSFIETSAL [K13R]	2.52
AVPTDEARAFAEKNGLQFIETSAL [S17Q]	4.02
AVPTDEARAFAEKNGLKFIETSAL [S17K]	3.23
AVPTDEARAFAEKNGLMFIETSAL [S17M]	2.81
AVPTDEARAFAEKNGLDFIETSAL [S17D]	3.14
AVPTDEARAFAEKNGLFFIETSAL [S17F]	2.62
AVPTDEARAFAEKNGLAFIETSAL [S17A]	2.53
AVPTDEARAFAEKNGLHFIETSAL [S17H]	3.19
AVPTDEARAFAEKNGLTFIETSAL [S17T]	3.36
AVPTDEARAFAEKNGLLFIETSAL [S17L]	2.7
AVPTDEARAFAEKNGLWFIETSAL [S17W]	2.66
AVPTDEARAFAEKNGLRFIETSAL [S17R]	3.08
AVPTDEARAFAEKNGLVFIETSAL [S17V]	2.79
AVPTDEARAFAEKNGLYFIETSAL [S17Y]	2.97
AVPTDEARAFAEKNGLPFIETSAL [S17P]	4.38
AVPTDEARAFAEKNGLIFIETSAL [S17I]	2.73
AVPTDEARAFAEKNGLGFIETSAL [S17G]	3.53
AVPTDEARAFAEKNGLNFIETSAL [S17N]	1.56

Variant	protein stability index
AVPTDEARAFAEKNGLCFIETSAL [S17C]	2.52
AVPTDEARAFAEKNGLEFIETSAL [S17E]	4.3
AVPTDEARAFAEKNHLSFIETSAL [G15H]	2.15
AVPTDEARAFAEKNYLSFIETSAL [G15Y]	1.74
AVPTDEARAFAEKNALSFIETSAL [G15A]	2.08
AVPTDEARAFAEKNELSFIETSAL [G15E]	3.33
AVPTDEARAFAEKNTLSFIETSAL [G15T]	1.7
AVPTDEARAFAEKNPLSFIETSAL [G15P]	2.2
AVPTDEARAFAEKNLLSFIETSAL [G15L]	1.67
AVPTDEARAFAEKNDLSFIETSAL [G15D]	3.87
AVPTDEARAFAEKNMLSFIETSAL [G15M]	2.02
AVPTDEARAFAEKNWLSFIETSAL [G15W]	2.3
AVPTDEARAFAEKNVLSFIETSAL [G15V]	2.64
AVPTDEARAFAEKNFLSFIETSAL [G15F]	1.82
AVPTDEARAFAEKNKLSFIETSAL [G15K]	2.92
AVPTDEARAFAEKNCLSFIETSAL [G15C]	2.59
AVPTDEARAFAEKNRLSFIETSAL [G15R]	2.52
AVPTDEARAFAEKNSLSFIETSAL [G15S]	2.06
AVPTDEARAFAEKNILSFIETSAL [G15I]	2.8
AVPTDEARAFAEKNQLSFIETSAL [G15Q]	2.58
